Source: patent US20240309087A1 (SHANGHAI JUNSHI BIOSCIENCES, published 2024)
Substitutions are numbered along the chain they refer to.

B1: Hu5 (antibody, IgG4, V domains shown)
VH: EVQLVESGGGLVQPGGSLRLSCAASGFTFSSYHMSWVRQAPGKGLELVAAINSNDINTYYLDTVKGRFTISRDIAKNSLYLQMNSLRAEDTAVYYCARHEDYYGFAMDYWGQGTLVTVSS
VL: DIQMTQSPSSLSASVGDRVTITCKASQSVSNDVAWYQQKPGKAPKLLIYYVSNRFTGVPSRFSGSGSGTDFTLTISSLQPEDFATYFCQQAYRSPWTFGQGTKLEIK
notes: humanized IgG4; also called Hu-05
B2: Hu51 (antibody, IgG4, V domains shown)
VH: B1 VH with Q13K, A49S, D55G, I74N
VL: EIVMTQSPPTLSLSPGERVTLSCKASQSVSNDVAWYQEKPGQAPRLLIYYVSHRFTGIPARFSGSGSGTDFTLTISSLQPEDFAVYYCHQAYRSPWTFGQGTKLEIK
notes: humanized IgG4
B3: Hu56 (antibody, IgG4, V domains shown)
VH: B1 VH with V37I, D55G, I74N
VL: B1 VL with D1A, S30T, R54H, F55Y
notes: humanized IgG4
B4: Hu20 (antibody, IgG4, V domains shown)
VH: EVQLVESGGGLVKPGGSLRLSCAASGFTFSSYHMSWVRQAPGKGLELVSAISRDGDSTYYPDTVKGRFTISRDDAENSLYLQMNSLRAEDTAVYYCSRHEDYFGFAMDSWGQGTLVTVSS
VL: B1 VL with D1A, S30T, R54H, F55Y
notes: humanized IgG4
B5: Hu8 (antibody, IgG4, V domains shown)
VH: B1 VH with Q13K, A49S
VL: B1 VL with D1A, S30T, R54H, F55Y
notes: humanized IgG4; also called Hu-08
B6: Hu3 (antibody, IgG4, V domains shown)
VH: B1 VH
VL: B2 VL
notes: humanized IgG4; also called Hu-03
B7: Hu26 (antibody, IgG4, V domains shown)
VH: B4 VH with K13Q, S49A, D74N, E76K
VL: B1 VL with D1A, S30T, R54H, F55Y
notes: humanized IgG4
B8: Hu12 (antibody, IgG4, V domains shown)
VH: B1 VH with Q13K, A49S
VL: B2 VL with E38Q, H53N, Y87F, H89Q
notes: humanized IgG4
B9: Hu15 (antibody, IgG4, V domains shown)
VH: B4 VH with D74N, E76K
VL: B2 VL
notes: humanized IgG4
B10: Hu9 (antibody, IgG4, V domains shown)
VH: B1 VH with Q13K, A49S
VL: B2 VL
notes: humanized IgG4; also called Hu-09
B11: Hu11 (antibody, IgG4, V domains shown)
VH: B1 VH with Q13K, A49S
VL: B1 VL
notes: humanized IgG4
B12: Hu6 (antibody, IgG4, V domains shown)
VH: B1 VH
VL: B2 VL with E38Q, H53N, Y87F, H89Q
notes: humanized IgG4; also called Hu-06
B13: Hu21 (antibody, IgG4, V domains shown)
VH: B4 VH
VL: B2 VL
notes: humanized IgG4
B14: Hu14 (antibody, IgG4, V domains shown)
VH: B4 VH with D74N, E76K
VL: B1 VL with D1A, S30T, R54H, F55Y
notes: humanized IgG4
B15: Hu53 (antibody, IgG4, V domains shown)
VH: B1 VH with Q13K, A49S, D55G, I74N
VL: B1 VL
notes: humanized IgG4

Key:
[1] = biological target: T1, hCD112R mFC recombinant protein (human; murine, UniProt Q6DKI7 41-160); assay: FACS competition, hCD112R mFc on CHO CD112 cells; IC50 COM701/IC50 antibody
T1 construct: range 41-160; expressed in 293E cells; also called hCD112R ECD mFC; hCD112R-ECD-mFC; not shown: murine IgG2a Fc domain (MX2-mFc vector)
T1 sequence (looked up): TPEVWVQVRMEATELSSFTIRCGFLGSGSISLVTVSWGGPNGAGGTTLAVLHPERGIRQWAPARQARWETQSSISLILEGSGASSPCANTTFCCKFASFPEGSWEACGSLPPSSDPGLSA
Description: (§1) Cells CHO CD112 overexpressing human CD112 were co-incubated with a hCD112R mFc protein solution (5 μg/mL) prepared in a staining buffer (PBS+1% FBS), and the humanized anti-CD112R antibodies or the control antibodies at different concentrations (initial concentration: 100 μg/mL, 3-fold dilution, 10 concentration gradients) at 4° C. for 30 min. Unbound antibodies were then washed with a staining buffer and the cells were incubated with 1% (v/v) goat anti-mouse IgG Fc fluorescent secondary antibodies (Jackson ImmunoResearch) prepared in a staining buffer at 4° C. for 30 min in the dark. Finally, the cells were collected by using a flow cytometer (BD Canto II), and the fluorescent antibodies bound to the cell surface were detected. Raw data were analyzed by using FlowJo to obtain MFI values, and a four-parameter curve fitting was performed by using GraphPad Prism software to obtain IC₅₀ values. The positive control and the negative control were COM701 (anti-CD112R antibody, Compugen, obtained by expression and purification according to the sequences in US20180280506A1) and the anti-KLH hu-IgG4 antibody, respectively.

[2] = biological target: T2, human CD112R on Jurkat CD112R effector cells (human, UniProt Q6DKI7 1-326); assay: cell-based or functional assay
T2 sequence (looked up): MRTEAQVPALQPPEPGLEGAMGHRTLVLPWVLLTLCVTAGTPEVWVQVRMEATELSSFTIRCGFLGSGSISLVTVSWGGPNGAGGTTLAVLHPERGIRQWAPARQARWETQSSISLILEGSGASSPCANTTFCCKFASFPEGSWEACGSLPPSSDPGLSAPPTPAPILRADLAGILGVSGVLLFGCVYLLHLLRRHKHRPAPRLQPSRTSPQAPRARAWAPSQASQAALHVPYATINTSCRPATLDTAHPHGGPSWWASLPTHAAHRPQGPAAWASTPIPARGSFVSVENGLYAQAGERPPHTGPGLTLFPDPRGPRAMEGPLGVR

[3] = biological target: T1, hCD112R mFC recombinant protein; assay: ELISA, coated hCD112R-ECD-mFC
Description: (§2) A plate was coated with a hCD112R-ECD-mFC protein (1.5 μg/mL) at a fixed concentration, and the humanized anti-CD112R antibodies diluted in a gradient (initial concentration: 1 μg/mL, 2.5-fold gradient dilution, 12 concentration gradients in total) were added to bind to the antigen. HRP-conjugated goat anti-human antibody IgG (Fc specific) (Sigma, A0170) was subjected to a 5000-fold dilution and used as a detection antibody for detection. The color development was performed with 0.1 mg/mL TMB, and finally stopped with 2 M hydrochloric acid. The plate was read at 420 nm/620 nm. EC₅₀ was obtained by fitting with a four-parameter logistic regression (4PL) model. The […] were COM701 (anti-CD112R antibody, Compugen, obtained by expression and purification according to the sequences in US20180280506A1) and the anti-KLH hu-IgG4 antibody.

[4] = biological target: T1, hCD112R mFC recombinant protein; assay: FACS competition, hCD112R mFc on CHO CD112 cells
Description: as §1

[5] = biological target: T1, hCD112R mFC recombinant protein; assay: ELISA, coated hCD112R-ECD-mFC; EC50 COM701/EC50 antibody
Description: as §2

Binder	Relative activity (%) [1]	EC50, CD112R/CD112 reporter [2]	Relative activity (%), EC50 COM701/EC50 antibody [2]	EC50 [3]	IC50 [4]	Relative activity (%) [5]
B1	90.2%	0.0461 µg/mL	148%	0.00275 µg/mL	4.41 µg/mL	155%
B2	69.2%	0.0225 µg/mL	332%	0.00663 µg/mL	3.48 µg/mL	138%
B3	71%	0.0243 µg/mL	276%	0.00475 µg/mL	3.39 µg/mL	193%
B4	159%	0.038 µg/mL	135%	0.00518 µg/mL	2.25 µg/mL	128%
B5	86.1%	0.0633 µg/mL	110%	0.00309 µg/mL	4.62 µg/mL	127%
B6	93.9%	0.038 µg/mL	189%	0.00355 µg/mL	4.24 µg/mL	120%
B7	145%	0.0353 µg/mL	183%	0.00351 µg/mL	2.47 µg/mL	190%
B8	95.1%	0.0542 µg/mL	144%	0.00288 µg/mL	4.18 µg/mL	136%
B9	109%	0.0237 µg/mL	209%	0.00451 µg/mL	3.29 µg/mL	127%
B10	97.5%	0.0385 µg/mL	195%	0.00345 µg/mL	4.08 µg/mL	114%
B11	91.6%	0.0529 µg/mL	148%	0.00275 µg/mL	4.34 µg/mL	143%
B12	89.1%	0.0529 µg/mL	128%	0.00271 µg/mL	4.46 µg/mL	158%
B13	146%	0.0285 µg/mL	179%	0.0029 µg/mL	2.44 µg/mL	229%
B14	162%	0.0225 µg/mL	215%	0.00443 µg/mL	2.21 µg/mL	129%
B15	75.7%	0.023 µg/mL	314%	0.00541 µg/mL	3.18 µg/mL	169%
